3 molecules from patent US20210032360A1 (BERLIN CHEMIE, published 2021) can be followed below.

The chains are these.
T1: Bone marrow stromal antigen 1 (BST1), human, on the cell surface (human, UniProt Q10588 33-293)
T1 construct: This is endogenous BST1 on A549, H226 and U937 cells and on primary MDS bone marrow cells; also called ADP-ribosyl cyclase 2; CD157
T1 sequence: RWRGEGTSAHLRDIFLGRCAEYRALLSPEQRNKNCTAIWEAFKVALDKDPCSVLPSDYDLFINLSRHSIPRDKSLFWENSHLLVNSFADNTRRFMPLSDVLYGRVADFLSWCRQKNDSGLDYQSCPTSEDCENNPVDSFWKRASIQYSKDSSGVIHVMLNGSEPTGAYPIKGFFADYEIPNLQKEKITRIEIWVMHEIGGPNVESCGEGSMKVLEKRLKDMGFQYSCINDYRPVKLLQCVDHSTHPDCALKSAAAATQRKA

B1: BST1_A2 (Fab, V domains shown)
VH: QAYLQQSGPELVKAGASVKMSCKASGYSFIEYTINWVKQSHGKSLEWIGNIDPYYGTTYYNQMFTGKATLTVDQSSNTAYMQLKSLTSEDSAVYFCARGSAWFPYWGQGTLVTVSA
VL: DIVMSQSPAIMSASPGEKVTMTCSASSSVTYMYWYQQKPGSSPRLLIYDTSNLASGVPVRFSGSGSGTSYSLTISRMEAEDTATYYCQQWSNYPLTFGAGTKLELKR
notes: they are whole murine Fab chains: bacterial leader, variable domain and constant domain, with a His tag on the heavy chain; also called anti-BST1 monoclonal antibody BST1_A2
B2: BST1_A3 (Fab, V domains shown)
VH: QVQLQQSRAELVMPGASVKMSCKTSGYTFSDYWVHWVRQRPGQGLEWIGAIDGSDTFNDYSQKFKGRATLTVDESSSTVYMQLSSLTSEDSAVYYCARGGLLQYWGQGTTLTVSS
VL: DIQLTQSPASLSASVGETVTITCRASENIYSYLAWYQQKQGKSPQLLVYNTKTLGEGVPSRFSGSGSGTQFSLKINSLQPEDFGSYYCQHHYGTPFTFGSGTKLEIKR
notes: they are whole murine Fab chains: bacterial leader, variable domain and constant domain, with a His tag on the heavy chain
B3: BST1_A1 (Fab, V domains shown)
VH: QVKLQQSGAELVRPGSSVKISCKASGYAFSNSWINWVKQRPGQGLEWIGQIYPGDYDTNYNGKFKGKATLTADYSSSTAYMQLNSLTSEDSAVYFCARGGSIYYGNLGFFDVWGAGTTVTVSS
VL: EMVLTQSPAIMSTSLGERVTMTCTASSRVSSSYLHWYQQKPGSSPKLWIYSTSNLASGVPARFSGSGSGTSYSLTISSMEAEDAATYYCHQYHRSPYTFGGGTKLEIKR
notes: also called anti-BST1 monoclonal antibody BST1_A1

This experiment has as its target T1, Bone marrow stromal antigen 1 (BST1), …. In words: flow cytometry on BST1-expressing H226 and A549 cells, PE-labelled secondary antibody, geometric mean fluorescence (PE GMFI); antibody concentration not given. On the procedure:
The specificity of antibodies against the BST1 selected in Example 2 was tested by flow cytometry. To test the ability of the antibodies to bind to the cell surface BST1 protein, the antibodies were incubated with the BST1-expressing cells, A549 and H226, from human lung adenocarcinoma and human lung squamous carcinoma, respectively. Cells were washed in FACS buffer (DPBS, 2% FBS), centrifuged and resuspended in 100 μl of the diluted primary BST1 antibody (also diluted in FACS buffer). The antibody-A549 complex was incubated on ice for 60 min and then washed twice with FACS buffer as described above. The cell-antibody pellet was resuspended in 100 μl of the diluted secondary antibody (also diluted in FACS buffer) and incubated on ice for 60 min on ice. The pellet was washed as before and resuspended in 200 μl FACS buffer. The samples were loaded onto the BD FACScanto II flow sytometer and the data analyzed using the BD FACSdiva software.
For orientation: A flow cytometer gives signals particle by particle.
In the case of B1, the binding result is “binds”.

Take B2: the binding result is given as “binds”.

On to B3, for which the binding result is on record as “binds”.
